Here are results for 1 molecule from PMC11470942 (Nature Communications, 2024).

The assay deals with HPIV3 fusion protein (F), parental (Human parainfluenza virus 3, strain …, UniProt P06828). The assay can be described thus: immunostaining of cells or tissue.
HPIV3 fusion protein (F), parental, sequence (P06828 19-539): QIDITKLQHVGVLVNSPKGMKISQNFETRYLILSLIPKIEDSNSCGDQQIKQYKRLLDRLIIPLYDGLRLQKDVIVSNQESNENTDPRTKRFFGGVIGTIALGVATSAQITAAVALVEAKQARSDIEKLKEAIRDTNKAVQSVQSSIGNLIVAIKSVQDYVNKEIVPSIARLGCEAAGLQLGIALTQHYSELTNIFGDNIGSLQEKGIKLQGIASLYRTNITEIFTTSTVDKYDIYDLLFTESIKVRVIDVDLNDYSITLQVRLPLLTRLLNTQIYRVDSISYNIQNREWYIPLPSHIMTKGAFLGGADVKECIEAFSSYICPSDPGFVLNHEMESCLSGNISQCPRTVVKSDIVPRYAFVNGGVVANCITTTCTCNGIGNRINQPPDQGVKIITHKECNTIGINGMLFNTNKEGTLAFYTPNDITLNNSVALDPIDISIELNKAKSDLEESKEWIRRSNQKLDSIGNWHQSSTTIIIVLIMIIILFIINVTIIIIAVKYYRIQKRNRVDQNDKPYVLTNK

B1: PIA174 antibody fragment (Fab) (Fab, V domains shown)
VH: VQLQESGPGLVKPSETLSLTCTVSGGSVSSYYWSWIRQPPGKGLEWIGNIYYSGTTKYNPSLKSRVTISVDVSKNQFSLNLISVTAADTAVYFCARQVKSGWFVQPFDYWGQGALVTVSS
VL: QMTQSPPSLSAYVGDRVTITCRASQAIANYLAWFQQKPGKAPKSLIYAASTLQSGVPSRFSGSGSGTDFTLTISSLQPEDFATYYCHQYNTYPITFGQGTRLEIK
Take B1: the binding result is reported as “binds”.
